Measurements taken from patent publication US20210347913A1 (published 2021).

T1: PTK7 on PTK7 positive cell line SaOS-2 (osteosarcoma) (UniProt Q13308 31-1070)
T1 chain: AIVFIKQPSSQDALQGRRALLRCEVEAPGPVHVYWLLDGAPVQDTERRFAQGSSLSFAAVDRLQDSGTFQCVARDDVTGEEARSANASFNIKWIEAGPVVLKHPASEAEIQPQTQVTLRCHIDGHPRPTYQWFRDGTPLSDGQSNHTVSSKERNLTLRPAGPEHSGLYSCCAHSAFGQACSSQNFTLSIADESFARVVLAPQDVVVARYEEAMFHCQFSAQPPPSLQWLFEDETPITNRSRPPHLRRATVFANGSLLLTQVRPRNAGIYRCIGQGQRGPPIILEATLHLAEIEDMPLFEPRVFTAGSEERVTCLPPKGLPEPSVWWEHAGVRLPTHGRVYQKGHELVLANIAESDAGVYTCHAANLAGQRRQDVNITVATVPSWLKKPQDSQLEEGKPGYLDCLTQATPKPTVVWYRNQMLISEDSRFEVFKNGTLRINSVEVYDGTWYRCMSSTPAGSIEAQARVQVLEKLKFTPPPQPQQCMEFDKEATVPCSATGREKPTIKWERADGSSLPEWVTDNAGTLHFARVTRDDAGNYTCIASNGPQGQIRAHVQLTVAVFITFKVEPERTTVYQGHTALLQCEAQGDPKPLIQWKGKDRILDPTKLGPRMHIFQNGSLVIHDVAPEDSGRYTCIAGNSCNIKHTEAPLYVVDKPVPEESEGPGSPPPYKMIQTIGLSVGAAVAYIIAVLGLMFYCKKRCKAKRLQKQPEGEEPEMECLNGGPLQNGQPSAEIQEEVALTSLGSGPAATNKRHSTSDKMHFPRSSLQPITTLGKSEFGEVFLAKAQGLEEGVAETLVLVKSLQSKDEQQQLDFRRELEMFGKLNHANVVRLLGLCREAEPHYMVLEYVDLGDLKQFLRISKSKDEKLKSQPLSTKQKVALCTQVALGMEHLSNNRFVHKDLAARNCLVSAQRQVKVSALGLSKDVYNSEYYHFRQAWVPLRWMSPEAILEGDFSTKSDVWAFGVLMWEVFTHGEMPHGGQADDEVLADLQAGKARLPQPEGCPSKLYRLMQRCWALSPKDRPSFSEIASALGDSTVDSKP


Experiments:
[1] = target: T1, PTK7 on PTK7 positive cell line SaOS-2 …; assay: FACS binding SaOS-2
[2] = target: T1, PTK7 on PTK7 positive cell line SaOS-2 …; assay: FACS binding SaOS-2; +MMP14
[3] = target: T1, PTK7 on PTK7 positive cell line SaOS-2 …; assay: FACS binding SaOS-2; -MMP14

Binder | EC50 [1] [nM] | EC50 [2] [nM] | EC50 [3] [nM]
181 M9 (antibody) QGCHIGKRPVPCLWIGSSGGSGGSGGSGGGPLGLAGGSSGQVQLVESGGGVVQPGRSLRLSCAASGFTFSSYGMHWVRQAPGKGLEWVAVIWDDGSNKYYVDSVKGRFTISRDNSKNTLYLQMNSLRAEDTAVYYCARDDYYGSGSFNSYYGTDVWGQGTTVTVSSGGGGSGGGGSGGGGSEIVLTQSPATLSLSPGERATLSCRASQSVSIYLAWYQQKPGQAPRLLIYDASNRATGIPARFSGSGSGTDFTLTISSLEPEDFAVYYCQQRSNWPPFTFGPGTKVDISAAAFVPVFLPAKPTTTPAPRPPTPAPTIASQPLSLRPEACRPAAGGAVHTRGLDFACDIYIWAPLAGTCGVLLLSLVITLYCNHRNRSKRSRLLHSDYMNMTPRRPGPTRKHYQPYAPPRDFAAYRSRVKFSRSADAPAYQQGQNQLYNELNLGRREEYDVLDKRRGRDPEMGGKPRRKNPQEGLYNELQKDKMAEAYSEIGMKGERRRGKGHDGLYQGLSTATKDTYDALHMQALPPR | 141 |  | 
181 M10 (antibody) QGCYIGLRMVPCFHMGSSGGSGGSGGSGGGPLGLAGGSSGQVQLVESGGGVVQPGRSLRLSCAASGFTFSSYGMHWVRQAPGKGLEWVAVIWDDGSNKYYVDSVKGRFTISRDNSKNTLYLQMNSLRAEDTAVYYCARDDYYGSGSFNSYYGTDVWGQGTTVTVSSGGGGSGGGGSGGGGSEIVLTQSPATLSLSPGERATLSCRASQSVSIYLAWYQQKPGQAPRLLIYDASNRATGIPARFSGSGSGTDFTLTISSLEPEDFAVYYCQQRSNWPPFTFGPGTKVDIKSAAAFVPVFLPAKPTTTPAPRPPTPAPTIASQPLSLRPEACRPAAGGAVHTRGLDFACDIYIWAPLAGTCGVLLLSLVITLYCNHRNRSKRSRLLHSDYMNMTPRRPGPTRKHYQPYAPPRDFAAYRSRVKFSRSADAPAYQQGQNQLYNELNLGRREEYDVLDKRRGRDPEMGGKPRRKNPQEGLYNELQKDKMAEAYSEIGMKGERRRGKGHDGLYQGLSTATKDTYDALHMQALPPR | 1350 | 0.49 | 434
181 M7 (antibody) QGCTMPYHIHSIGLCGSSGGSGGSGGSGGGPLGLAGGSSGQVQLVESGGGVVQPGRSLRLSCAASGFTFSSYGMHWVRQAPGKGLEWVAVIWDDGSNKYYVDSVKGRFTISRDNSKNTLYLQMNSLRAEDTAVYYCARDDYYGSGSFNSYYGTDVWGQGTTVTVSSGGGGSGGGGSGGGGSEIVLTQSPATLSLSPGERATLSCRASQSVSIYLAWYQQKPGQAPRLLIYDASNRATGIPARFSGSGSGTDFTLTISSLEPEDFAVYYCQQRSNWPPFTFGPGTKVDIKSAAAFVPVFLPAKPTTTPAPRPPTPAPTIASQPLSLRPEACRPAAGGAVHTRGLDFACDIYIWAPLAGTCGVLLLSLVITLYCNHRNRSKRSRLLHSDYMNMTPRRPGPTRKHYQPYAPPRDFAAYRSRVKFSRSADAPAYQQGQNQLYNELNLGRREEYDVLDKRRGRDPEMGGKPRRKNPQEGLYNELQKDKMAEAYSEIGMKGERRRGKGHDGLYQGLSTATKDTYDALHMQALPPR | 118 |  | 
181 M5 (antibody) QGCTYPSWVAYIRFCGSSGGSGGSGGSGGGPLGLAGGSSGQVQLVESGGGVVQPGRSLRLSCAASGFTFSSYGMHWVRQAPGKGLEWVAVIWDDGSNKYYVDSVKGRFTISRDNSKNTLYLQMNSLRAEDTAVYYCARDDYYGSGSFNSYYGTDVWGQGTTVTVSSGGGGSGGGGSGGGGSEIVLTQSPATLSLSPGERATLSCRASQSVSIYLAWYQQKPGQAPRLLIYDASNRATGIPARFSGSGSGTDFTLTISSLEPEDFAVYYCQQRSNWPPFTFGPGTKVDIKSAAAFVPVFLPAKPTTTPAPRPPTPAPTIASQPLSLRPEACRPAAGGAVHTRGLDFACDIYIWAPLAGTCGVLLLSLVITLYCNHRNRSKRSRLLHSDYMNMTPRRPGPTRKHYQPYAPPRDFAAYRSRVKFSRSADAPAYQQGQNQLYNELNLGRREEYDVLDKRRGRDPEMGGKPRRKNPQEGLYNELQKDKMAEAYSEIGMKGERRRGKGHDGLYQGLSTATKDTYDALHMQALPPR | 29.9 |  | 
181 M6 (antibody) QGVCTYPPAHRTRFCGSSGGSGGSGGSGGGPLGLAGGSSGQVQLVESGGGVVQPGRSLRLSCAASGFTFSSYGMHWVRQAPGKGLEWVAVIWDDGSNKYYVDSVKGRFTISRDNSKNTLYLQMNSLRAEDTAVYYCARDDYYGSGSFNSYYGTDVWGQGTTVTVSSGGGGSGGGGSGGGGSEIVLTQSPATLSLSPGERATLSCRASQSVSIYLAWYQQKPGQAPRLLIYDASNRATGIPARFSGSGSGTDFTLTISSLEPEDFAVYYCQQRSNWPPFTFGPGTKVDIKSAAAFVPVFLPAKPTTTPAPRPPTPAPTIASQPLSLRPEACRPAAGGAVHTRGLDFACDIYIWAPLAGTCGVLLLSLVITLYCNHRNRSKRSRLLHSDYMNMTPRRPGPTRKHYQPYAPPRDFAAYRSRVKFSRSADAPAYQQGQNQLYNELNLGRREEYDVLDKRRGRDPEMGGKPRRKNPQEGLYNELQKDKMAEAYSEIGMKGERRRGKGHDGLYQGLSTATKDTYDALHMQALPPR | 30.5 |  | 

Results, then the binder that gave them:

EC50 [1] [nM] | EC50 [2] [nM] | EC50 [3] [nM] | Binder
222 |  |  | 181 M11 (antibody) QGCTMPSHAVASFLCGSSGGSGGSGGSGGGPLGLAGGSSGQVQLVESGGGVVQPGRSLRLSCAASGFTFSSYGMHWVRQAPGKGLEWVAVIWDDGSNKYYVDSVKGRFTISRDNSKNTLYLQMNSLRAEDTAVYYCARDDYYGSGSFNSYYGTDVWGQGTTVTVSSGGGGSGGGGSGGGGSEIVLTQSPATLSLSPGERATLSCRASQSVSIYLAWYQQKPGQAPRLLIYDASNRATGIPARFSGSGSGTDFTLTISSLEPEDFAVYYCQQRSNWPPFTFGPGTKVDIKSAAAFVPVFLPAKPTTTPAPRPPTPAPTIASQPLSLRPEACRPAAGGAVHTRGLDFACDIYIWAPLAGTCGVLLLSLVITLYCNHRNRSKRSRLLHSDYMNMTPRRPGPTRKHYQPYAPPRDFAAYRSRVKFSRSADAPAYQQGQNQLYNELNLGRREEYDVLDKRRGRDPEMGGKPRRKNPQEGLYNELQKDKMAEAYSEIGMKGERRRGKGHDGLYQGLSTATKDTYDALHMQALPPR
40.9 | 0.38 | 58.6 | 181 M13 (antibody) QGCTYPPRFHMHWLCGSSGGSGGSGGSGGGPLGLAGGSSGQVQLVESGGGVVQPGRSLRLSCAASGFTFSSYGMHWVRQAPGKGLEWVAVIWDDGSNKYYVDSVKGRFTISRDNSKNTLYLQMNSLRAEDTAVYYCARDDYYGSGSFNSYYGTDVWGQGTTVTVSSGGGGSGGGGSGGGGSEIVLTQSPATLSLSPGERATLSCRASQSVSIYLAWYQQKPGQAPRLLIYDASNRATGIPARFSGSGSGTDFTLTISSLEPEDFAVYYCQQRSNWPPFTFGPGTKVDIKSAAAFVPVFLPAKPTTTPAPRPPTPAPTIASQPLSLRPEACRPAAGGAVHTRGLDFACDIYIWAPLAGTCGVLLLSLVITLYCNHRNRSKRSRLLHSDYMNMTPRRPGPTRKHYQPYAPPRDFAAYRSRVKFSRSADAPAYQQGQNQLYNELNLGRREEYDVLDKRRGRDPEMGGKPRRKNPQEGLYNELQKDKMAEAYSEIGMKGERRRGKGHDGLYQGLSTATKDTYDALHMQALPPR
68.8 |  |  | 181 M14 (antibody) QGCTHVAQWAIKAFCGSSGGSGGSGGSGGGPLGLAGGSSGQVQLVESGGGVVQPGRSLRLSCAASGFTFSSYGMHWVRQAPGKGLEWVAVIWDDGSNKYYVDSVKGRFTISRDNSKNTLYLQMNSLRAEDTAVYYCARDDYYGSGSFNSYYGTDVWGQGTTVTVSSGGGGSGGGGSGGGGSEIVLTQSPATLSLSPGERATLSCRASQSVSIYLAWYQQKPGQAPRLLIYDASNRATGIPARFSGSGSGTDFTLTISSLEPEDFAVYYCQQRSNWPPFTFGPGTKVDIKSAAAFVPVFLPAKPTTTPAPRPPTPAPTIASQPLSLRPEACRPAAGGAVHTRGLDFACDIYIWAPLAGTCGVLLLSLVITLYCNHRNRSKRSRLLHSDYMNMTPRRPGPTRKHYQPYAPPRDFAAYRSRVKFSRSADAPAYQQGQNQLYNELNLGRREEYDVLDKRRGRDPEMGGKPRRKNPQEGLYNELQKDKMAEAYSEIGMKGERRRGKGHDGLYQGLSTATKDTYDALHMQALPPR
93.8 |  |  | 181 M12 (antibody) QGCTMPVHTYSQWLCGSSGGSGGSGGSGGGPLGLAGGSSGQVQLVESGGGVVQPGRSLRLSCAASGFTFSSYGMHWVRQAPGKGLEWVAVIWDDGSNKYYVDSVKGRFTISRDNSKNTLYLQMNSLRAEDTAVYYCARDDYYGSGSFNSYYGTDVWGQGTTVTVSSGGGGSGGGGSGGGGSEIVLTQSPATLSLSPGERATLSCRASQSVSIYLAWYQQKPGQAPRLLIYDASNRATGIPARFSGSGSGTDFTLTISSLEPEDFAVYYCQQRSNWPPFTFGPGTKVDIKSAAAFVPVFLPAKPTTTPAPRPPTPAPTIASQPLSLRPEACRPAAGGAVHTRGLDFACDIYIWAPLAGTCGVLLLSLVITLYCNHRNRSKRSRLLHSDYMNMTPRRPGPTRKHYQPYAPPRDFAAYRSRVKFSRSADAPAYQQGQNQLYNELNLGRREEYDVLDKRRGRDPEMGGKPRRKNPQEGLYNELQKDKMAEAYSEIGMKGERRRGKGHDGLYQGLSTATKDTYDALHMQALPPR
